From patent US20010052137A1, “Axin domain-like polypeptide inhibitors of glycogen synthase kinase 3 beta activity and activators of wnt signaling” (Trustees of the University of Pennsylvania, priority 2000, published 2001)

B1: amino-terminal fragment: Myc-tagged fragment, amino acid residues 63-288 of Xaxin (protein)
chain: RPDLDLGYEPEGSASPTPPYLKWAESLHSLLDDQDGIHLFRTFLQQENCADLLDFWFACSGFRKLEPNDSKVEKRLKLAKAIYKKYVLDSNGIVSRQIKPATKSFIKDCVLRQQIDPAMFDQAQMEIQSMMEDNTYPVFLKSDIYLEYTTIGGESPKNYSDQSSGSGTGKGPSGYLPTLNEDEEWRCDQGGEHERERECIPSSLFSQKLALDSSSHCAGSNRRLSD
modifications: left off: small tags and cut ends
notes: Myc-tagged fragment, amino acid residues 63-288 of Xaxin
B2: carboxyl-terminal fragment: Myc-tagged fragment, amino acid residues 429-713 of Xaxin (protein)
chain: SGPSVISHKLPSGPPMHHFNSRYSETGCVGMQIRDAHEENPESILDEHVQRVMKTPGCQSPGTGRHSPKSRSPDGHLSKTLPGSLGTMQTGHGKHSSKSTAKVDSGNLHHHKHVYHHVHHHGGVKPKEQIDGESTQRVQTNFPWNVESHNYATKSRNYAESMGMAPNPMDSLAYSGKVSMLSKRNAKKADLGKSESASHEMPVVPEDSERHQKILQWIMEGEKEIIRHKKSNHSSSSAKKQPPTELARPLSIERPGAVHPWVSAQLRNVVQPSHPFIQDPTMPPN
modifications: left off: small tags and cut ends
notes: Myc-tagged fragment, amino acid residues 429-713 of Xaxin
B3: GID-2/his: His-tagged fusion protein of Xaxin residues 320-429, expressed in E. coli and purified on nickel agarose (protein)
chain: DSEQQSMSSDADTMSLTDSSVDGIPPYRLRKHYRREMQESANANGRGPLPHIPRTYHMPKDIHVDPEKFAAELISRLEGVLRDREAEQKLEERLKRVRAEEEGDDGDVSS
modifications: left off: small tags and cut ends
notes: His-tagged fusion protein of Xaxin residues 320-429, expressed in E. coli and purified on nickel agarose
B4: AID: fragment of amino acid residues 489-777 of Xaxin, axin self-interaction domain (protein)
chain: PGTGRHSPKSRSPDGHLSKTLPGSLGTMQTGHGKHSSKSTAKVDSGNLHHHKHVYHHVHHHGGVKPKEQIDGESTQRVQTNFPWNVESHNYATKSRNYAESMGMAPNPMDSLAYSGKVSMLSKRNAKKADLGKSESASHEMPVVPEDSERHQKILQWIMEGEKEIIRHKKSNHSSSSAKKQPPTELARPLSIERPGAVHPWVSAQLRNVVQPSHPFIQDPTMPPNPAPNPLTQLVSKPGARLEEEEKKAAKMPQKQRLKPQKKNVSAPSQPCDNIVVAYYFCGEPIPYR
modifications: left off: large carriers

How the values were obtained:
GSK-3 beta [1] = assay: In ovo tau phosphorylation assay: GSK-3 beta and Xaxin constructs co-expressed in Xenopus oocytes; format: cell-based; conditions: construct co-expressed with GSK-3 beta in Xenopus oocytes; tau microinjected; PHF-1 immunoblot
Method: Stage VI Xenopus oocytes were isolated by collagenase treatment (Smith et al., 1994, Meth. Cell Biol. 36:45-58) and were injected with mRNA prepared by in vitro transcription (mMessage Machine™; Ambion, Austin, Tex.). 10 nanoliters of mRNA (containing 1-2 nanograms per nanoliter) was injected for each construct (unless otherwise specified), and the injected oocytes were incubated for 16 hours at 18° C. To analyze the effects of Xaxin constructs on dorsal-ventral pattern formation, Xenopus embryos were injected with 10 nanoliters of mRNA (0.1-0.2 nanogram per nanoliter) into one dorsal or ventral cell of a 4 cell embryo and dorsal axes were assessed at the tadpole stage. For Xaxin co-immunoprecipitation, fertilized eggs were injected with 10 nanoliters of Xaxin tagged with Myc, with hemagglutinin, or with both Myc and hemagglutinin (1 nanogram per nanoliter) and harvested at the blastula stage (stage 8).
(§1) In ovo phosphorylation of tau by GSK-3 beta was performed by microinjection of tau protein into oocytes expressing GSK-3 beta and Xaxin constructs. After 90 minutes, oocytes were homogenized and tau phosphorylation was analyzed in western blots using phospho-specific antibodies as described (Hedgepeth et al., 1997, Develop. Biol. 185:82-91). In vitro assays for GSK-3 beta activity were performed as described (Klein et al., 1996, Proc. Natl. Acad. Sci. USA 93:8455-8459). Recombinant GID-2/his protein (described below) was purified by affinity chromatography and added to in vitro assays at selected concentrations.
In the experiments presented in this example, a tau phosphorylation assay (described in Hedgepeth et al., 1997, Develop. Biol. 185:82-91) was used to examine the activity of GSK-3 beta in Xenopus oocytes in the presence of full length axin and axin deletion mutants. […] Furthermore, GSK-3 beta-dependent tau phosphorylation occurs in oocytes at the same sites (tau serine residues 396 and 404) that are phosphorylated by GSK-3 beta in vitro and occurs with similarly rapid kinetics.
GSK-3 beta was expressed in oocytes together with Myc-tagged full length Xaxin or with the amino-terminal (amino acid residues 63-288), GID-1 (amino acid residues 277-545), or carboxyl-terminal (amino acid residues 429-713) fragments of Xaxin, as depicted in FIG. 1A. Purified tau protein was then microinjected into the oocytes, and phosphorylation of tau was measured by immunoblotting using antibody PHF-1 or with antibodies that detect all (i.e. phosphorylated and non-phosphorylated) forms of tau.
In order to identify the domain of axin necessary for GSK-3 beta binding, multiple Myc-tagged GID deletion constructs (shown diagrammatically in FIG. 3A) were individually expressed in Xenopus oocytes in which GSK-3 beta was also expressed. Tau protein was microinjected into the oocytes, and immunoblotting was performed using phosphorylation-state-specific tau antibodies. A parallel group of oocytes expressing GSK-3 beta and the Myc-tagged GID deletion constructs were lysed, and GID proteins were immunoprecipitated using a Myc-specific antibody. The presence or absence of GSK-3 beta in GID immunoprecipitates was detected using GSK-3 beta-specific antibodies. GID deletion constructs which included amino acid residues 380-404 of Xaxin (i.e. constructs GID-1, GID-2, GID-4, GID-5, and GID-6) bound GSK-3 beta and inhibited GSK-3 beta mediated tau phosphorylation, as indicated in FIG. 3A. […] However, changing leucine residue 392 in FIG. 3B to proline abolishes its activity.

GSK-3 beta [2] = assay: Co-immunoprecipitation of GSK-3 beta with Myc-tagged Xaxin constructs in Xenopus oocytes; format: binding; conditions: Myc-tagged construct co-expressed with GSK-3 beta in Xenopus oocytes; anti-Myc IP, anti-GSK-3 beta blot
beta-catenin = beta-catenin protein accumulation in Xenopus oocytes (immunoblot); format: cell-based; conditions: construct mRNA expressed in Xenopus oocytes
Method: FIG. 2A is an image of an immunoblot of Xenopus cytoplasmic extracts obtained from Xenopus embryos in which beta-catenin was expressed, using an antibody which binds specifically with beta-catenin (described in McCrea et al., 1993, J. Cell. Biol. 123:477-84). The embryo corresponding to lane 2 was incubated in the presence of 20 millimolar LiCI. Extracts corresponding to lanes 3-5, 7, and 8 were obtained from embryos in which full-length (lane 8) Xaxin or the C-term (lane 3), GID1 (“GID”; lanes 4 and 7), or N-term (lane 5) fragments of Xaxin were expressed.
Although endogenous GSK-3 beta is not present at sufficient levels to detect using the tau assay, inhibition of GSK-3 beta is known to cause stabilization of cytoplasmic beta-catenin (Cadigan et al., 1997, Genes Dev. 11:3286-3305; Miller et al., 1996, Genes Develop. 10:2527-2539), and this serves as a widely used assay for downstream activation of wnt signaling. Inhibition of endogenous GSK-3 beta activity also causes stabilization of beta-catenin in Xenopus embryos and oocytes (Hedgepeth et al., 1997, Develop. Biol. 185:82-91; Yost et al., 1998, Cell 93:1031-1041; Yost et al., 1996, Genes Develop. 10:1443-1454). For this reason, levels of beta-catenin protein were assessed in Xenopus oocytes which had been injected either with full length Xaxin mRNA or with mRNA encoding one of the amino-terminal, GID, or carboxyl-terminal domains of Xaxin.

Xenopus embryos = assay: Dorsal axis duplication / dorsalization in Xenopus embryos after mRNA injection; format: in vivo; conditions: construct expressed in embryos, injection side not stated
GSK-3 beta [3] = assay: In vitro GSK-3 beta activity assay with purified GID-2/his; format: biochemical
Method: as §1
A cDNA (GID-2) encoding amino acid residues 320-429 of Xaxin was cloned into pET29b (Novagen, Madison, Wis.) in frame with the His-epitope tag. The resulting encoded GID-2/his fusion protein was expressed in BL2I/DE3 cells and purified on nickel agarose according to standard procedures. […]
(§2) GSK-3 beta (25 nanomolar) was incubated with GID-2/his (up to 200-fold molar excess), and each mixture was assayed to detect either protein kinase activity or, in parallel, protein-protein interaction. Interaction between GSK-3 beta and GID-2/his was detected by purification on nickel agarose followed by immunoblotting with GSK-3 beta-specific antibodies. […]

GSK-3 beta [4] = assay: In vitro binding of GSK-3 beta to GID-2/his on nickel agarose; conditions: 25 nanomolar GSK-3 beta
Method: A cDNA (GID-2) encoding amino acid residues 320-429 of Xaxin was cloned into pET29b (Novagen, Madison, Wis.) in frame with the His-epitope tag. The resulting encoded GID-2/his fusion protein was expressed in BL2I/DE3 cells and purified on nickel agarose according to standard procedures. Purified GID-2/his was added to a reaction cocktail having a final volume of 20 microliters and containing 25 nanomolar recombinantly-generated GSK-3 beta in GSK-3 assay buffer, as described (Klein et al., 1996, Proc. Natl. Acad. Sci. USA 93:8455-8459). This reaction mixture was incubated at 0° C. for one hour. After this incubation period, half of the mixture was assayed for GSK-3 beta activity, and the other half was incubated with nickel-agarose at 4° C. for one hour with rotation. The agarose was washed three times using PBS, and then Laemmli sample buffer was added. The samples were boiled for five minutes and then subjected to immunoblotting using anti-GSK-3 beta antibody.
as §2

FL Xaxin = target: T1, FL Xaxin (Xenopus laevis, UniProt Q9YGY0); assay: Yeast two hybrid assay, interaction with FL Xaxin; format: binding; conditions: beta-galactosidase filter assay in S. cerevisiae
T1 construct: expressed in transfected cells; host or cells: Saccharomyces cerevisiae
Source text: FL Xaxin was cloned in frame with the GAL4 DNA binding domain (BD) in plasmid pAS2-1 (Clontech) to yield BD plasmid. Expression of BD plasmid yielded a Xaxin-GAL4 fusion protein. FL Xaxin, deltaDIX Xaxin, and a fragment (designated “AID”) encoding amino acid residues 489-777 of Xaxin were cloned in frame with the GAL4 transcriptional activation domain (AD) in the vector pACT2 to yield AD plasmids. Yeast were transformed with BD and AD plasmids using previously described protocols (Clontech, Palo Alto, Calif.). Transformed colonies were selected and assayed for beta-galactosidase activity in order to detect interacting proteins. In addition, three Xenopus axin partial length cDNAs (designated Y2H 2, Y2H 6, Y2H 7; all in plasmid pACT2) isolated from a previous yeast two hybrid screen (Hedgepeth et al., 1999, Mech. Develop. 80:147-151) were analyzed. Purification of GID
Using the yeast two hybrid assay, the ability of axin to bind with itself, with other members of the wnt pathway, or with the G(alpha)q subunit of heterotrimeric G-proteins, was investigated. […]
Saccharomyces cerevisiae cells were transformed with the bait vector and with one of the target vectors. Interaction was assessed using a filter assay to detect beta-galactosidase activity, as described (Fields et al., 1989, Nature 340:245-247; Harper et al., 1993, Cell 75:805-816). […]

T1 sequence (Q9YGY0 whole entry): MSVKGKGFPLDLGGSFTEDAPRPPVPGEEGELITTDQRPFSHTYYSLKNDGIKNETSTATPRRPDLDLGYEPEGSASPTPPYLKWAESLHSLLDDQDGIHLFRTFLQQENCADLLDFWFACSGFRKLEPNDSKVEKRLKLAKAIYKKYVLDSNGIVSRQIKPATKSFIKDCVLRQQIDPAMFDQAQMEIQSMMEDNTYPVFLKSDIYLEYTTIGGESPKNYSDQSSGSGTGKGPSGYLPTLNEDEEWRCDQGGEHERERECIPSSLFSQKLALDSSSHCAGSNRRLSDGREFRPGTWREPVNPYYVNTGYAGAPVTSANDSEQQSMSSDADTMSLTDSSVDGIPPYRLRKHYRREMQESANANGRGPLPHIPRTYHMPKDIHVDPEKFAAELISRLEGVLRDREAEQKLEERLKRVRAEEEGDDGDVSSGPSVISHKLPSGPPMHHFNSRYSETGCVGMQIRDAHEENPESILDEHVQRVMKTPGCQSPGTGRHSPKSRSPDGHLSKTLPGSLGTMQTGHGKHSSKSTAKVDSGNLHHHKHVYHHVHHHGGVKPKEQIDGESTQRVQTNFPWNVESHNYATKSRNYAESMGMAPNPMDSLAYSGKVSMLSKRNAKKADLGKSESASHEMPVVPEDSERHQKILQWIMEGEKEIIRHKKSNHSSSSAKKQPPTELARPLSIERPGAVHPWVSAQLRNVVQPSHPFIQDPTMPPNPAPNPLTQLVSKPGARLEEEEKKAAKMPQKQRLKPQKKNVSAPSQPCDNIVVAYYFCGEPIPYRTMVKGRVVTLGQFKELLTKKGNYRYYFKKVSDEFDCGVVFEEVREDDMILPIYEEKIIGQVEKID

Molecule	GSK-3 beta-mediated tau phosphorylation (GSK-3 beta activity) (GSK-3 beta [1])	binding with GSK-3 beta (co-immunoprecipitation) (GSK-3 beta [2])	accumulation of beta-catenin (beta-catenin)	effect on axial development / axis formation (Xenopus embryos)	GSK-3 beta mediated phosphorylation of the GS-2 peptide (GSK-3 beta [3]; 25 nanomolar GSK-3 beta, GID-2/his up to 200-fold molar excess)	phosphorylation of tau by GSK-3 beta in vitro (GSK-3 beta [3]; GID-2/his at a 200-fold molar excess)	binding of GSK-3 beta (nickel agarose, immunoblot) (GSK-3 beta [4])	interaction with FL Xaxin (self-interaction) (FL Xaxin)
B1	no effect	Neither the amino- nor carboxyl-terminal fragments of axin bound	not observed	no apparent effect	–	–	–	–
B2	no effect	Neither the amino- nor carboxyl-terminal fragments of axin bound	not observed	no apparent effect	–	–	–	–
B3	–	–	–	–	no significant effect	did not inhibit	bound specifically	–
B4	–	–	–	–	–	–	–	sufficient to mediate axin self-interaction
